Test results from patent publication US20200231654A1 (published 2020).

T1: Recombinant Human Matriptase/ST14 Catalytic Domain (human, UniProt Q9Y5Y6 596-855)
T1 chain: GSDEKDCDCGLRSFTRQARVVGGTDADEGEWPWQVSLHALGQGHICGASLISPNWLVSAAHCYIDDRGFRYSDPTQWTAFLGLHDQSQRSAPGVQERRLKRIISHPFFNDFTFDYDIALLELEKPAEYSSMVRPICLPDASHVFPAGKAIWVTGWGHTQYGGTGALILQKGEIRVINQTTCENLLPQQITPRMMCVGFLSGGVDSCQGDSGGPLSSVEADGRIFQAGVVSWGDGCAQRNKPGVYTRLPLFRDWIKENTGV

T2: Neutrophil elastase (human) (human, UniProt P08246 30-247)
T2 chain: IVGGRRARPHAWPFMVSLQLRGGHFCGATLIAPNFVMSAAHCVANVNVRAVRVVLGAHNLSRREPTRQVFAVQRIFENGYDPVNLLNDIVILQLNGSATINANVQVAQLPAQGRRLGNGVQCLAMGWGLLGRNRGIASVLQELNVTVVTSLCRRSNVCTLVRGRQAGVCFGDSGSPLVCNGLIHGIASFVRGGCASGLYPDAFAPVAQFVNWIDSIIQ

T3: Plasmin from human plasma (human, UniProt P00747 97-810)
T3 chain: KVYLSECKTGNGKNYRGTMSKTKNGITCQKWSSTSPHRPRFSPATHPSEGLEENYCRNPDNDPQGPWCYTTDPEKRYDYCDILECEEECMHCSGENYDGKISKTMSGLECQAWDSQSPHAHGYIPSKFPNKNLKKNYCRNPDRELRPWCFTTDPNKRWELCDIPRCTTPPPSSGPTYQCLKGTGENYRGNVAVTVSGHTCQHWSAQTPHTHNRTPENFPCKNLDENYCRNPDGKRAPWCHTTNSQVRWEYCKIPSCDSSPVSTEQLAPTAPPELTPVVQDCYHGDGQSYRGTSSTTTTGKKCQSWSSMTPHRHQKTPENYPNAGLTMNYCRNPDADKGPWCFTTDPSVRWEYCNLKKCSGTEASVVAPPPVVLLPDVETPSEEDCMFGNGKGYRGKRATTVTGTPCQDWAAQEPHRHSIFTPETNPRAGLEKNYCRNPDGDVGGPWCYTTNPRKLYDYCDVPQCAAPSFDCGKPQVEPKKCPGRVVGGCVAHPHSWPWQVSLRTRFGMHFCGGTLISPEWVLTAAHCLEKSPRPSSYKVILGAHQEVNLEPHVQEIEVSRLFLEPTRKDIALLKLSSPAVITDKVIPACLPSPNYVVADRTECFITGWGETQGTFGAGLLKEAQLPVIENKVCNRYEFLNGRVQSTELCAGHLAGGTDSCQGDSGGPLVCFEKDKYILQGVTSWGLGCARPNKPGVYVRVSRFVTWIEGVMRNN

T4: Chymase human recombinant expressed in Pichia pastoris (human, UniProt P23946 22-247)
T4 chain: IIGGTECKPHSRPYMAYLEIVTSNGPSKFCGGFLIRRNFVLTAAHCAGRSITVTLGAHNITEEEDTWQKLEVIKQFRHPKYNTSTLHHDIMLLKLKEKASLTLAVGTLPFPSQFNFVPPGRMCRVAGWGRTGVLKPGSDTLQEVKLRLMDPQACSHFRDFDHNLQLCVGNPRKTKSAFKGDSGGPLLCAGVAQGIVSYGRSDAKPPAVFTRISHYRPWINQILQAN


Assays:
[1] = biological target: tissue plasminogen activator human (human, UniProt P00750 36-562); experiment: substrate peptide degradation inhibition
tissue plasminogen activator human, sequence (P00750 36-562): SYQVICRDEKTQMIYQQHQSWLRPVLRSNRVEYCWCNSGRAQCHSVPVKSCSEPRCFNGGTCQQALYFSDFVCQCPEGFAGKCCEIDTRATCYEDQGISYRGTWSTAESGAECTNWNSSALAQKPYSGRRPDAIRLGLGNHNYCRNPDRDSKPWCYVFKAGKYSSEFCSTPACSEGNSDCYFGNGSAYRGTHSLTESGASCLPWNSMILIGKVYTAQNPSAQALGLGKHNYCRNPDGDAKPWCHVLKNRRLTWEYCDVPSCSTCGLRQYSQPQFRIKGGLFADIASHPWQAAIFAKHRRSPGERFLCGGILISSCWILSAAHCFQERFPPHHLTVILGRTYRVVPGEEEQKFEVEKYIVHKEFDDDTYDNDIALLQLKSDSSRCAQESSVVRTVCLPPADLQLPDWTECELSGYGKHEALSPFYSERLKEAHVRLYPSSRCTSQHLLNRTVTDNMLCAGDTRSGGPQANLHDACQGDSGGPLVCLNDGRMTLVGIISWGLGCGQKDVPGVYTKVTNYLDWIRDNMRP

[2] = biological target: T1, Recombinant Human Matriptase/ST14 …; experiment: substrate peptide degradation inhibition
[3] = biological target: Trypsin from Human Pancreas (human, UniProt P07477 24-247); experiment: substrate peptide degradation inhibition
[4] = biological target: urokinase from human urine (human, UniProt P00749 21-431); experiment: substrate peptide degradation inhibition
Tryptase from human lung = Tryptase from human lung (human, UniProt Q15661 31-275); experiment: substrate peptide degradation inhibition
Tryptase from human lung, sequence (Q15661 31-275): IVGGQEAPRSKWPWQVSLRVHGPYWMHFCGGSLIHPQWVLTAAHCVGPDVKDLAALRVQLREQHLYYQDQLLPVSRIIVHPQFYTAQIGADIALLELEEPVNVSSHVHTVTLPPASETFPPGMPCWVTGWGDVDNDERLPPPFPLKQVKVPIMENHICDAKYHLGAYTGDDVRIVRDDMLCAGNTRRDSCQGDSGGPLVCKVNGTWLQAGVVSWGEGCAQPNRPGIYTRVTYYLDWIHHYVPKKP

[5] = biological target: T2, Neutrophil elastase (human); experiment: substrate peptide degradation inhibition
[6] = biological target: α-Chymotrypsin from human pancreas (human, UniProt P17538 19-263); experiment: substrate peptide degradation inhibition
α-Chymotrypsin from human pancreas, sequence (P17538 19-263): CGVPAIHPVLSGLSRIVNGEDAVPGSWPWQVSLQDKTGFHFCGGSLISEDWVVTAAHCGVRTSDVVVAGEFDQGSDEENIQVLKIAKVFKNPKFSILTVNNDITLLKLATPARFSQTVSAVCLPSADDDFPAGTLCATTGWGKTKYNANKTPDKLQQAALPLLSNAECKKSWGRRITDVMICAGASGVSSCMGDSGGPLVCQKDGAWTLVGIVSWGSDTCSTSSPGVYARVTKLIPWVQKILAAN

[7] = biological target: Protein C from human plasma (human, UniProt P04070 43-461); experiment: substrate peptide degradation inhibition
Protein C from human plasma, sequence (P04070 43-461): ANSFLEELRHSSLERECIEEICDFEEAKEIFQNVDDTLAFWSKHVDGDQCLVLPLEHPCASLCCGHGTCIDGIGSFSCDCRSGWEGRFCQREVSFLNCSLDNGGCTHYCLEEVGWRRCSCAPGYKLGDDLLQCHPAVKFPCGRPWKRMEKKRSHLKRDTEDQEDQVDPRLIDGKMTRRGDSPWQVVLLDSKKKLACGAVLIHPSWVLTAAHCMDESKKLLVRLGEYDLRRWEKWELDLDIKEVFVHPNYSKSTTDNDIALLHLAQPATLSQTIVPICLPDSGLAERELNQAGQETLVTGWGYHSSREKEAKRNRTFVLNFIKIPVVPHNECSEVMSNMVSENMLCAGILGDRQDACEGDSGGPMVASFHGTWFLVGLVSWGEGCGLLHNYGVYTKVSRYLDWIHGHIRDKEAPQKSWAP

[8] = biological target: Thrombin from human plasma (human, UniProt P00734 328-622); experiment: substrate peptide degradation inhibition
[9] = biological target: T3, Plasmin from human plasma; experiment: substrate peptide degradation inhibition
[10] = biological target: recombinant human plasma kallikrein/KLKB1 Protein (human, UniProt P03952 20-638); experiment: substrate peptide degradation inhibition
recombinant human plasma kallikrein/KLKB1 Protein, sequence (P03952 20-638): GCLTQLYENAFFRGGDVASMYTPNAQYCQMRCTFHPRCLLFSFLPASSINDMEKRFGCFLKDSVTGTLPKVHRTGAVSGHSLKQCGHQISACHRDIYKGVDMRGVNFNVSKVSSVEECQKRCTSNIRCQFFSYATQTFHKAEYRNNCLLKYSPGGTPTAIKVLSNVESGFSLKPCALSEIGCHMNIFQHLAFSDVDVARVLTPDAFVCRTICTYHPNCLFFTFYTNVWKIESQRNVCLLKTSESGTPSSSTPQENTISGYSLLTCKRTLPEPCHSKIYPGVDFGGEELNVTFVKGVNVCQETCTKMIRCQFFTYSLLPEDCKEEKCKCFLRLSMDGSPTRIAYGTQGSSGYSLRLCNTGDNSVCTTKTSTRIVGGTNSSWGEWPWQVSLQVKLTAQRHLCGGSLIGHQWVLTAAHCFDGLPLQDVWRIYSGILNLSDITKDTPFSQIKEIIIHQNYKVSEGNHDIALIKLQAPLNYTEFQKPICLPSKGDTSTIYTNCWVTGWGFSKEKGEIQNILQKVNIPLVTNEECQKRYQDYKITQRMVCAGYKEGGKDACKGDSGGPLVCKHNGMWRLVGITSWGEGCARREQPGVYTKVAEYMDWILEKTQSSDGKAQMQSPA

[11] = biological target: T4, Chymase human recombinant expressed in …; experiment: substrate peptide degradation inhibition
active hMMP-9(cat)_His6 [12] = biological target: T5, active hMMP-9(cat)_His6 (UniProt P14780 107-449); experiment: enzyme inhibition; substrate peptide
T5 sequence (P14780 107-449): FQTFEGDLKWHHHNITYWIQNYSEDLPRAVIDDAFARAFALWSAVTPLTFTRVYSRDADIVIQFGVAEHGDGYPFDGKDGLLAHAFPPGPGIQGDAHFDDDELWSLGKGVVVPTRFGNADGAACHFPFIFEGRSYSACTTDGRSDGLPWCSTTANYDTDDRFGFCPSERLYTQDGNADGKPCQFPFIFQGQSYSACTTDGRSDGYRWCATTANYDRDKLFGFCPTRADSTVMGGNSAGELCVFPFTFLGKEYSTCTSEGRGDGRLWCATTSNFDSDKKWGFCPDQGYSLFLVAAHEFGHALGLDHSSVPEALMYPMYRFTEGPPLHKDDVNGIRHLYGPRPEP

[13] = biological target: biotin-labeled active hMMP-9(cat)_FLAG_Avi (UniProt P14780 107-449, biotin on the Avi tag (biotin ligase BirA)); experiment: ELISA
biotin-labeled active hMMP-9(cat)_FLAG_Avi, sequence (P14780 other isoform, or with tags, fused parts or gaps): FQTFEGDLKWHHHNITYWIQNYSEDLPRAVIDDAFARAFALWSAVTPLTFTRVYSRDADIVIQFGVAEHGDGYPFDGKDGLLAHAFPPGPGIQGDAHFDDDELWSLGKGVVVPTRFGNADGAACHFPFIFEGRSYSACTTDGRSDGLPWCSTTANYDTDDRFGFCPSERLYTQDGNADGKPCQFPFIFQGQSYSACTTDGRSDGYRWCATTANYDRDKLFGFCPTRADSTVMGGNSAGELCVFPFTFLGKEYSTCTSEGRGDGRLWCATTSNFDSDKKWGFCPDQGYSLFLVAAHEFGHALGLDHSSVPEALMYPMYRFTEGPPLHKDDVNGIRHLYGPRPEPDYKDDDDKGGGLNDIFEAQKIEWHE

active hMMP-9(cat)_His6 [14] = biological target: T5, active hMMP-9(cat)_His6; experiment: enzyme inhibition; substrate gelatin
[15] = biological target: Recombinant Human MMP-16/MT3-MMP Protein, CF (human, UniProt P51512 32-564); experiment: enzyme inhibition
Recombinant Human MMP-16/MT3-MMP Protein, CF, sequence (P51512 32-564): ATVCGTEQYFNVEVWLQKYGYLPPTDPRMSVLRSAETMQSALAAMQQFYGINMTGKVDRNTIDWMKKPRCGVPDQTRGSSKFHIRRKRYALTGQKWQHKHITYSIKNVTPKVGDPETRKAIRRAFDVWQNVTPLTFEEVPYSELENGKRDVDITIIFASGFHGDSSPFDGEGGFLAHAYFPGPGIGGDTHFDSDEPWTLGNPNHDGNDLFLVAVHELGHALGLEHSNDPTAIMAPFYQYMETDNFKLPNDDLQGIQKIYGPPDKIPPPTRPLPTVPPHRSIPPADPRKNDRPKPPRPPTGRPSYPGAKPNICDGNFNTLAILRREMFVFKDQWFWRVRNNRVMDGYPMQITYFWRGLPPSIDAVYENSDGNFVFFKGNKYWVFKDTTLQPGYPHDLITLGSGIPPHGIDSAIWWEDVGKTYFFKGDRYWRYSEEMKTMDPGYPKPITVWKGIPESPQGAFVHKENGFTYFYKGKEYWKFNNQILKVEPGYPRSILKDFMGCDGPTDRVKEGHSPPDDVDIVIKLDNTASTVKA

[16] = biological target: MMP14 Recombinant Protein (human, UniProt P50281 112-287); experiment: enzyme inhibition

Row | Binder | IC50 [1] | IC50 [2] | IC50 [3] | IC50 [4] | IC50 (Tryptase from human lung) | IC50 [5] | IC50 [6] | IC50 [7] | IC50 [8] | IC50 [9] | IC50 [10] | IC50 [11] | Ki (active hMMP-9(cat)_His6 [12]) | EC50 [13] | IC50 (active hMMP-9(cat)_His6 [14]) | IC50 [15] | IC50 [16]
1 | active MMP-9-binding peptide M91004 (designed binder) GSGMKETAAAKFERQHMDSPDLGTDDDDKAMADIGSANSDPQFGLFSKYRTPNCRQRKGPSCQMAFQPVCGSDMSTYANECTLCMKIREGGHNIKIIRNGPCGASAAA | > 1000 nM | > 1000 nM | > 1000 nM | > 1000 nM | > 1000 nM | > 1000 nM | > 1000 nM | > 1000 nM | > 1000 nM | > 1000 nM | > 1000 nM | > 1000 nM | 1.2 nM | 42 nM | 7.6 nM | > 1000 nM | > 1000 nM
2 | active MMP-9-binding peptide M91001 (designed binder) GSGMKETAAAKFERQHMDSPDLGTDDDDKAMADIGSANSDPQFGLFSKYRTPNCQRGIGPSCQMSYKPVCGSDMSTYANECTLCMKIREGGHNIKIIRNGPCGASAAA | > 1000 nM | > 1000 nM | > 1000 nM | > 1000 nM | > 1000 nM | > 1000 nM | > 1000 nM | > 1000 nM | > 1000 nM | > 1000 nM | > 1000 nM | > 1000 nM | 2.6 nM | 22 nM | 8.3 nM | > 1000 nM | > 1000 nM
3 | active MMP-9-binding peptide M91011 (designed binder) GSGMKETAAAKFERQHMDSPDLGTDDDDKAMADIGSANSDPQFGLFSKYRTPNCMMYKYAQCSHKSQPVCGSDMSTYANECTLCMKIREGGHNIKIIRNGPCGASAAA | > 1000 nM | > 1000 nM | > 1000 nM | > 1000 nM | > 1000 nM | > 1000 nM | > 1000 nM | > 1000 nM | > 1000 nM | > 1000 nM | > 1000 nM | > 1000 nM | 1.6 nM | 16 nM | – | > 1000 nM | > 1000 nM
4 | active MMP-9-binding peptide M91002 (designed binder) GSGMKETAAAKFERQHMDSPDLGTDDDDKAMADIGSANSDPQFGLFSKYRTPNCRTGRGPACQMGFQPVCGSDMSTYANECTLCMKIREGGHNIKIIRNGPCGASAAA | > 1000 nM | > 1000 nM | > 1000 nM | > 1000 nM | > 1000 nM | > 1000 nM | > 1000 nM | > 1000 nM | > 1000 nM | > 1000 nM | > 1000 nM | > 1000 nM | 2.3 nM | 47 nM | 8.5 nM | > 1000 nM | > 1000 nM
5 | active MMP-9-binding peptide M91010 (designed binder) GSGMKETAAAKFERQHMDSPDLGTDDDDKAMADIGSANSDPQFGLFSKYRTPNCRKVGEPACQMSFNPVCGSDMSTYANECTLCMKIREGGHNIKIIRNGPCGASAAA | > 1000 nM | > 1000 nM | > 1000 nM | > 1000 nM | > 1000 nM | > 1000 nM | > 1000 nM | > 1000 nM | > 1000 nM | > 1000 nM | > 1000 nM | > 1000 nM | 1.2 nM | 48 nM | 5.8 nM | > 1000 nM | > 1000 nM
6 | active MMP-9-binding peptide M91012 (designed binder) GSGMKETAAAKFERQHMDSPDLGTDDDDKAMADIGSANSDPQFGLFSKYRTPNCRVRGGPSCQMSFNPVCGSDMSTYANECTLCMKIREGGHNIKIIRNGPCGASAAA | > 1000 nM | > 1000 nM | > 1000 nM | > 1000 nM | > 1000 nM | > 1000 nM | > 1000 nM | > 1000 nM | > 1000 nM | > 1000 nM | > 1000 nM | > 1000 nM | 2.1 nM | 46 nM | 8.6 nM | > 1000 nM | > 1000 nM
7 | active MMP-9-binding peptide M91005 (designed binder) GSGMKETAAAKFERQHMDSPDLGTDDDDKAMADIGSANSDPQFGLFSKYRTPNCRKRGGPSCQMSYNPVCGSDMSTYANECTLCMKIREGGHNIKIIRNGPCGASAAA | > 1000 nM | > 1000 nM | > 1000 nM | > 1000 nM | > 1000 nM | > 1000 nM | > 1000 nM | > 1000 nM | > 1000 nM | > 1000 nM | > 1000 nM | > 1000 nM | 1.4 nM | 46 nM | 8.2 nM | > 1000 nM | > 1000 nM
8 | active MMP-9-binding peptide M91014 (designed binder) GSGMKETAAAKFERQHMDSPDLGTDDDDKAMADIGSANSDPQFGLFSKYRTPNCVMYKYAQCSHKYKPVCGSDMSTYANECTLCMKIREGGHNIKIIRNGPCGASAAA | > 1000 nM | > 1000 nM | > 1000 nM | > 1000 nM | > 1000 nM | > 1000 nM | > 1000 nM | > 1000 nM | > 1000 nM | > 1000 nM | > 1000 nM | > 1000 nM | 0.45 nM | 8 nM | 3 nM | > 1000 nM | > 1000 nM
